From paper doi:10.1101/2023.10.26.564242, “KIF1C activates and extends dynein movement through the FHF cargo adaptor” (bioRxiv, 2023)

T1: full-length KIF1C-GFP (human, UniProt O43896 1-1103)
T1 construct: KIF1C, human, full length; also called KFL
T1 sequence (looked up): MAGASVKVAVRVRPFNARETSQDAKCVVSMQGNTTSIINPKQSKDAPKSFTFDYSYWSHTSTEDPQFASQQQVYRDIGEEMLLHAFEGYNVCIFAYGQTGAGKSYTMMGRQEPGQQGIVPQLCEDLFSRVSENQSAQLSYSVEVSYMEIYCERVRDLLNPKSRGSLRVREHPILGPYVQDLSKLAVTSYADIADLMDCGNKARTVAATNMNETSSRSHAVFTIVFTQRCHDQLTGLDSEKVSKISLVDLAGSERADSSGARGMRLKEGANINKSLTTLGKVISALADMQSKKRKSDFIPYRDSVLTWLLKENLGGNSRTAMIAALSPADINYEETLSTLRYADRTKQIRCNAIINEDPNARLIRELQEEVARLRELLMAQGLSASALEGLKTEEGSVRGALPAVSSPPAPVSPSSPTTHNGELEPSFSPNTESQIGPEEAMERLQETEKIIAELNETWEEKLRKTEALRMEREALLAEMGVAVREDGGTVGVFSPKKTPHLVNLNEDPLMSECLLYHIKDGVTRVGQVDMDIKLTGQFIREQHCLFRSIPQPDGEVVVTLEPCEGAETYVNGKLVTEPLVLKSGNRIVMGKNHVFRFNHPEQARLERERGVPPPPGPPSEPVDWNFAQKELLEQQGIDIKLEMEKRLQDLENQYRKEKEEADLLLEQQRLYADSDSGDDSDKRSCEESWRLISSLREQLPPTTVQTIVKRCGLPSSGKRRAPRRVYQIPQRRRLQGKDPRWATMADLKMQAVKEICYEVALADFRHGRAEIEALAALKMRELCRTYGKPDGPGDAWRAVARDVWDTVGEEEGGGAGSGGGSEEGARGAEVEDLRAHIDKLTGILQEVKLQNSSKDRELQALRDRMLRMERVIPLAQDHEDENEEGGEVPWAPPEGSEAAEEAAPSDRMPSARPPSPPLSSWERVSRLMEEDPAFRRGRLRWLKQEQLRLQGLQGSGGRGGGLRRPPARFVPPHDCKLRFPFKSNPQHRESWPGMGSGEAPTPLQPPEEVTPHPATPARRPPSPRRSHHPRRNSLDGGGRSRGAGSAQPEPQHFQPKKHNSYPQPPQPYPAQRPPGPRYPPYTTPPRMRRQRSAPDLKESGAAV

T2: HOOK3, full length (as in full-length FHF) (human, UniProt Q86VS8 1-718)
T2 construct: HOOK3, human, full length; gene codon optimised for Sf9; The HOOK3 chain of full-length FHF, written alone for the rows of two; not shown: Strep II, N-terminal, cleaved
T2 sequence (looked up): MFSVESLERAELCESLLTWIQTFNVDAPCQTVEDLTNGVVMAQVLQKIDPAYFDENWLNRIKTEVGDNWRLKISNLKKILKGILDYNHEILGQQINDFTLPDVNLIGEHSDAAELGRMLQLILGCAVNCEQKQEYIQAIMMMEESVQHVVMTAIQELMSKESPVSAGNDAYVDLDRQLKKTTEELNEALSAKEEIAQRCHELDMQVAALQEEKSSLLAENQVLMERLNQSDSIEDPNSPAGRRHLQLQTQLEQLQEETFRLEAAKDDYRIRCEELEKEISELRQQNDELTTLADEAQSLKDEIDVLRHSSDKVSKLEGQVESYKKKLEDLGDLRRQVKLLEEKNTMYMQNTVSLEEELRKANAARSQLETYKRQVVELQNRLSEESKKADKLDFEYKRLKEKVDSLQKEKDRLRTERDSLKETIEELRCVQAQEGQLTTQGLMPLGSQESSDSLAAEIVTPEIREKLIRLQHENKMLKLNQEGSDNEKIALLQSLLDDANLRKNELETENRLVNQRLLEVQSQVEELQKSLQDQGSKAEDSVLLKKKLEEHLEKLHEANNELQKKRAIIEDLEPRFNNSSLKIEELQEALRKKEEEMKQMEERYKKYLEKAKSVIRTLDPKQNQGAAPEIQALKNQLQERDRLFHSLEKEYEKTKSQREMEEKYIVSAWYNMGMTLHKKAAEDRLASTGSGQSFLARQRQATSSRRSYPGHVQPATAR

T3: HOOK3 residues 451-718 (as in FH^451-718F) (human, UniProt Q86VS8 451-718)
T3 construct: The HOOK3 chain of m12, written alone for the row of two; also called HOOK3 C-terminal fragment; not shown: Strep II, N-terminal, cleaved
T3 sequence (looked up): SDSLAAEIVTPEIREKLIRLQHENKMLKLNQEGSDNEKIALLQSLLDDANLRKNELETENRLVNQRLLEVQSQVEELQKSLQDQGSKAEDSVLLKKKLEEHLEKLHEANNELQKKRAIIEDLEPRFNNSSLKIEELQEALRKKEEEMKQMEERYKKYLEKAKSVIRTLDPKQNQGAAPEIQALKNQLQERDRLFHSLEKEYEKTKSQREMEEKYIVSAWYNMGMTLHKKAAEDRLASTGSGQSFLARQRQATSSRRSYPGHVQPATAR

B1: HOOK3-SNAPf labelled with Alexa 647 (natural protein, human, UniProt Q86VS8 1-718, looked up)
chain: T2 sequence (looked up)
modifications: benzylguanine conjugated fluorophore (Alexa 647) on the SNAPf domain
notes: HOOK3, amplified from a human cDNA library, full length; pFastBacM13-8xHis-ZZ-LTLT-HOOK3-SNAPf; An untagged full-length HOOK3 from the same backbone was used in assays with Lis1; source: Sf9 (baculovirus), purified (Ni-NTA, IgG Sepharose, TEV cleavage); not shown: 8xHis, N-terminal, cleaved; ZZ, N-terminal, cleaved; SNAPf, C-terminal, kept
B2: HOOK3 C-terminal fragment (residues 571-718) (domain or fragment, human, UniProt Q86VS8 571-718, looked up)
chain: DLEPRFNNSSLKIEELQEALRKKEEEMKQMEERYKKYLEKAKSVIRTLDPKQNQGAAPEIQALKNQLQERDRLFHSLEKEYEKTKSQREMEEKYIVSAWYNMGMTLHKKAAEDRLASTGSGQSFLARQRQATSSRRSYPGHVQPATAR
notes: The HOOK3 chain of the FHF cryo-EM construct, written alone for the rows of two; not shown: Strep II, N-terminal, cleaved
B3: GST-KIF1C stalk (residues 642-922) (domain or fragment, human, UniProt O43896 642-922, looked up)
chain: EMEKRLQDLENQYRKEKEEADLLLEQQRLYADSDSGDDSDKRSCEESWRLISSLREQLPPTTVQTIVKRCGLPSSGKRRAPRRVYQIPQRRRLQGKDPRWATMADLKMQAVKEICYEVALADFRHGRAEIEALAALKMRELCRTYGKPDGPGDAWRAVARDVWDTVGEEEGGGAGSGGGSEEGARGAEVEDLRAHIDKLTGILQEVKLQNSSKDRELQALRDRMLRMERVIPLAQDHEDENEEGGEVPWAPPEGSEAAEEAAPSDRMPSARPPSPPLSSWE
notes: also called KS; Ks; source: E. coli SoluBL21, purified (Ni-NTA, Superdex 200); not shown: GST, N-terminal, kept
B4: GST-KIF1C stalk 674-922 (domain or fragment, human, UniProt O43896 674-922, looked up)
chain: SDSGDDSDKRSCEESWRLISSLREQLPPTTVQTIVKRCGLPSSGKRRAPRRVYQIPQRRRLQGKDPRWATMADLKMQAVKEICYEVALADFRHGRAEIEALAALKMRELCRTYGKPDGPGDAWRAVARDVWDTVGEEEGGGAGSGGGSEEGARGAEVEDLRAHIDKLTGILQEVKLQNSSKDRELQALRDRMLRMERVIPLAQDHEDENEEGGEVPWAPPEGSEAAEEAAPSDRMPSARPPSPPLSSWE
notes: also called KIF1CS2; source: E. coli SoluBL21, purified (Ni-NTA, Superdex 200); not shown: GST, N-terminal, kept

What was measured:
full-length KIF1C-GFP = molecular target: T1, full-length KIF1C-GFP; experiment: single-molecule TIRF co-movement on microtubules; TMR-dynein, dynactin, HOOK3-Alexa 647 and KIF1C-GFP mixed (200 nM dynein, 200 nM dynactin, 1600 nM adaptor, 180 nM KIF1C-GFP, ~75 mM KCl), diluted and imaged on taxol microtubules at 25 °C; controls with single components omitted; settings: both partners purified
GST-KIF1C stalk 674-922 = molecular target: B4; experiment: cross-linking; cross-linking mass spectrometry with 10 mM EDC or 5 mM DSSO, room temperature, 60 minutes; full-length FHF or FH^571-718F bound to KIF1C stalk 674-922; settings: both partners purified
[1] = molecular target: the molecule itself; experiment: cryo-EM structure; FHF with full-length FTS and FHIP1B and HOOK3 571-718, 0.9 mg/ml with 0.1% CHAPSO or 0.005% Igepal; 3.2 Å reconstruction
[2] = molecular target: T4, full-length FTS-HOOK3-FHIP1B (FHF) complex (human, UniProt Q9H8T0 1-292; Q86VS8 1-718; Q8N612 1-972); experiment: cell-based or functional assay
[3] = molecular target: B1; experiment: cell-based or functional assay
[4] = molecular target: T4, full-length FTS-HOOK3-FHIP1B (FHF) …; experiment: mass photometry; full-length FHF with KIF1C stalk, diluted to 100 nM in GF150; Refeyn TwoMP; settings: both partners purified
[5] = molecular target: T2, HOOK3, full length (as in full-length …); experiment: cross-linking; cross-linking mass spectrometry with 10 mM EDC or 5 mM DSSO, room temperature, 60 minutes; full-length FHF or FH^571-718F bound to KIF1C stalk 674-922; settings: both partners purified
[6] = molecular target: T3, HOOK3 residues 451-718 (as in …); experiment: cryo-EM structure; FH^451-718F bound to GST-KIF1C stalk 674-922; low resolution at the KIF1C density; settings: both partners purified

T4 sequence (Q9H8T0 whole entry, chain 1 of 2): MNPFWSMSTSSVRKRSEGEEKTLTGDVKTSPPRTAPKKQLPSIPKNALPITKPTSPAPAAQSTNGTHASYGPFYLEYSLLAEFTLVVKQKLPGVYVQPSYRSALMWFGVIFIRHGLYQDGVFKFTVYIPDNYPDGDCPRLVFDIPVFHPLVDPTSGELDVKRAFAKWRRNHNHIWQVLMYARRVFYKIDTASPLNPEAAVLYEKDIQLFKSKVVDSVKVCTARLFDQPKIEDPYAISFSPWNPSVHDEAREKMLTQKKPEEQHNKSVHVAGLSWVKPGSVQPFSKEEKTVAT
T4 sequence (Q8N612 whole entry, chain 3 of 2): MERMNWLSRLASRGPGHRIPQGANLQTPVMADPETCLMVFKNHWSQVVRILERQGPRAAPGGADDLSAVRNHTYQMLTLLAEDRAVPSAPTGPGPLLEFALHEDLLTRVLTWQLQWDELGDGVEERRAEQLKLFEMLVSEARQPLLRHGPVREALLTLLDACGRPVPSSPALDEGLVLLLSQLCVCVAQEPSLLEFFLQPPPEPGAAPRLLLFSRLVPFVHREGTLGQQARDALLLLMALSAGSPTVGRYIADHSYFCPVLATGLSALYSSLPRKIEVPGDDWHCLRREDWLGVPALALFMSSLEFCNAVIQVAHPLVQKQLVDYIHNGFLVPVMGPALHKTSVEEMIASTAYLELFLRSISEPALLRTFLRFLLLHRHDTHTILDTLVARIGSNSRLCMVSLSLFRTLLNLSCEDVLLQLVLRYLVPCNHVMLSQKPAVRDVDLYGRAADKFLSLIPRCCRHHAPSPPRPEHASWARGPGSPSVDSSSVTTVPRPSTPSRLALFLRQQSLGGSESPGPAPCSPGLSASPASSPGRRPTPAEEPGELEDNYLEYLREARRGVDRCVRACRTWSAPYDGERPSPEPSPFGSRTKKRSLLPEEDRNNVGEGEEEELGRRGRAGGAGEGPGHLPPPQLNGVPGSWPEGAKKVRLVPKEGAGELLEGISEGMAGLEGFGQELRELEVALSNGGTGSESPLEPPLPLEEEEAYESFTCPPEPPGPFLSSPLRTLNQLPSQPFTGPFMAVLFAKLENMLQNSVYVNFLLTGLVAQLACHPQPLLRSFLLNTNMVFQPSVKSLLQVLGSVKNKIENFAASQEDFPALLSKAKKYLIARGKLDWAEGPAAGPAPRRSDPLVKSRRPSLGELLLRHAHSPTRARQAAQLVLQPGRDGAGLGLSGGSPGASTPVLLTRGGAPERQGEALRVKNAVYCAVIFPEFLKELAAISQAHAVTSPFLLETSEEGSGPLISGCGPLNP

B1
binding result (full-length KIF1C-GFP): binds

B2
binding result (GST-KIF1C stalk 674-922): binds | binding result [1]: binds

B3
processive events of dynein-dynactin-FHF (TIRF), with KIF1C stalk against a DDFHF control [2]: ~3.7 fold | dynein microtubule recruitment (TMR-dynein landing rate, TIRF) with dynactin, HOOK3 and Lis1, with against without the KIF1C stalk construct (GST-KIF1C642-922-GFP in this assay) [3]: 2.6 fold | stoichiometry N [4]: 1 dimeric KIF1C stalk per FHF

B4
binding result [5]: binds | binding result [6]: binds
